{"source": "IntAct's records for PubMed 9422760", "parents": {"B1": {"name": "Tyrosine-protein phosphatase non-receptor type 18 (Homo sapiens), Q99952 (parent)", "chain": "MSRSLDSARSFLERLEARGGREGAVLAGEFSDIQACSAAWKADGVCSTVAGSRPENVRKNRYKDVLPYDQTRVILSLLQEEGHSDYINGNFIRGVDGSLAYIATQGPLPHTLLDFWRLVWEFGVKVILMACREIENGRKRCERYWAQEQEPLQTGLFCITLIKEKWLNEDIMLRTLKVTFQKESRSVYQLQYMSWPDRGVPSSPDHMLAMVEEARRLQGSGPEPLCVHCSAGCGRTGVLCTVDYVRQLLLTQMIPPDFSLFDVVLKMRKQRPAAVQTEEQYRFLYHTVAQMFCSTLQNASPHYQNIKENCAPLYDDALFLRTPQALLAIPRPPGGVLRSISVPGSPGHAMADTYAVVQKRGAPAGAGSGTQTGTGTGTGARSAEEAPLYSKVTPRAQRPGAHAEDARGTLPGRVPADQSPAGSGAYEDVAGGAQTGGLGFNLRIGRPKGPRDPPAEWTRV"}, "B2": {"name": "Proline-serine-threonine phosphatase-interacting protein 1 (Homo sapiens), O43586 (parent)", "chain": "MMPQLQFKDAFWCRDFTAHTGYEVLLQRLLDGRKMCKDMEELLRQRAQAEERYGKELVQIARKAGGQTEINSLRASFDSLKQQMENVGSSHIQLALTLREELRSLEEFRERQKEQRKKYEAVMDRVQKSKLSLYKKAMESKKTYEQKCRDADDAEQAFERISANGHQKQVEKSQNKARQCKDSATEAERVYRQSIAQLEKVRAEWEQEHRTTCEAFQLQEFDRLTILRNALWVHSNQLSMQCVKDDELYEEVRLTLEGCSIDADIDSFIQAKSTGTEPPAPVPYQNYYDREVTPLTSSPGIQPSCGMIKRFSGLLHGSPKTTSLAASAASTETLTPTPERNEGVYTAIAVQEIQGNPASPAQEYRALYDYTAQNPDELDLSAGDILEVILEGEDGWWTVERNGQRGFVPGSYLEKL", "partner": "B1 chain"}}}
{"variants_of": "B1", "settings": "with ppip1_human PSTPIP1, O43586"}
{"variant": "P447A", "effect of a mutation on the interaction": "disrupting interaction"}
{"variants_of": "B1", "settings": "with ppip1_human PSTPIP1, O43586", "remark": "another data set of the same source"}
{"variant": "C229S", "effect of a mutation on the interaction": "increasing interaction"}
{"variants_of": "B2", "settings": "with ptn18_human PTPN18, Q99952"}
{"variant": "W232A", "effect of a mutation on the interaction": "disrupting interaction"}
